Results reported in paper PMC3428507 (Journal of molecular biology, 2012).
Like-named read-outs stand apart in the source and are kept apart here.

B1: MRG-binding domain of Pf1 (residues 200–241) (domain or fragment, human, UniProt Q96QT6 200-241, looked up)
chain: DYVQPQLRRPFELLIAAAMERNPTQFQLPNELTCTTALPGSS
B2: MRG domain of MRG15 (residues 155–323) (domain or fragment)
chain: not shown
B3: Pf1 PHD1/MBD (residues 48–241) (domain or fragment, human, UniProt Q96QT6 48-241, looked up)
chain: RRSGRATNHDSCDSCKEGGDLLCCDHCPAAFHLQCCNPPLSEEMLPPGEWMCHRCTVRRKKREQKKELGHVNGLVDKSGKRTTSPSSDTDLLDRSASKTELKAIAHARILERRASRPGTPTSSASTETPTSEQNDVDEDIIDVDEEPVAAEPDYVQPQLRRPFELLIAAAMERNPTQFQLPNELTCTTALPGSS

Legend:
Test in all cases: NMR titration
[1] = molecular target: T1, full-length MRG15 (residues 1–323) (human, UniProt Q9UBU8-2 1-323)
[2] = molecular target: B3
[3] = molecular target: T1, full-length MRG15 (residues 1–323); remark: listed apart in the source

B1: binds [1].

B2: binds [2].

B3: binds [3].
